This is an account of results in publication PMC10734219, “Characterization of the Membrane-Associated Electron-Bifurcating Flavoenzyme EtfABCX from the Hyperthermophilic Bacterium Thermotoga maritima” (Biochemistry, 2023).

Several values for one entry are separate records, joined by “and”; a condition that tells them apart may be missing. Equal entries are not always repeated.

This data set deals with the molecule itself. Description: SEC; purified recombinant EtfABCX analysed by size exclusion chromatography; peaks assigned by mass; EtfABCX protomers to superdimer and super-tetramer.

B1: Thermotoga maritima EtfABCX holoenzyme (heterotetrameric protomer) (complex)
chain 1: MNVVVCIKQVPDTTNVRIDRKTNNLVREGVPSIINPDDERALELASQLKEKFGATVYVITMGPPQAKEALKDAIAFGLDEAVHLSDRTFAGADTLATTYTLYWGIKKIEERIGKIDLILTGKQAVDGDTGQVGPGLATRFGYALGAYVVRIEEIDPEKKEMVIVRRLDQGFEKIRLKLPAVLTITDELNKPRYADLPNLIRAIRYEPIVWTHKDLGLDPKKCGFFGSPTRVVSTNIPPARKGGDIISKNEDPEVAAEKLIEALKKFEAVRLVEALKPVLEGEKDE
chain 2: MSEKKIIFVLIEHHGGKAHPVSWELIGKARDLASKLENSEVWGVLLGEGLESVAKEAIQRGADKVLYVKNREFNTYVNYLYKKALVDMVRKYRPEIFLIGATLEGRELAGMVATELETGLTADCTGLDIIPDKKLLAMTRPTFGGNLMATIMCPDHRPQMATVRPGVMKELPPDPERTGEIIEEEYDLGTFDKLIEILETIPLQTQVNLEYAPVVVAGGKGVGGPEGFKKLKELADLLGGEVGASRAAVKAGWISPEHQVGQTGKTVRPVLYFACGISGAIQHVVGIKESEIIVAINIDEKAPIFDIADIGIVGDLHKVVPALTAKLRELLNKSGVKK
chain 3: MKIEFDVVVVGAGPSGLSCAYVLAKNGLKVAVVEKGEYPGSKNVMGGVLYVHPLKEIMPDFLEKAANSKALERNVIEQNLWLLGNEGVIKIGHRNVEWKENPNAFTVLRANFDRWFAQEVEKAGALIIPKTKVEDFLRNEKGEIAGVVTSRPKGEIHSKAVVIAEGVNPILTMKAGLRKEDLKPHMVAVAVKEVISVPEDVVNRVFGVEGNDGATIELLGSWSEGMFGMGFLYANRSSVSLGCGVLLEDLRKKKIKPYQLLENLKNHPVISDMLGEYRNNTMEYLAHLIPEGGYYAMPKVYGDRVLVCGDAAMLVNSIHREGSNHAITSGRLAAETLLEAFEKGDFSEKILKNYYLRLKESFILKDLEKYKDLMPTMEKNHQFVEIYPDLANDALKRFLQVDGTPKWDVQKQIADMVLSRRSLIGISLDLLRFWRAVR
chain 4: MRIEDKLYLNRYRTDEENPHLKIKDESICAEKCSDRPCVSCCPADVYEWTESGMEVKFEGCLECGTCRIVCPFGNIEWNYPRGNYGVLYKFG
Turning to B1, the “stoichiometry N” value was 2 and 4.
